Target: adenine base editing engineered ribonucleoprotein (BE-eRNP): bipartite NLS-TadA(8.20-m)-linker-nCas9(D10A, C80A)-bipartite NLS protein complexed with sgRNA (Escherichia coli | Streptococcus pyogenes)
Assay: native gel or EMSA

**Q.** “adenine base editing engineered ribonucleoprotein (BE-eRNP): bipartite NLS-TadA(8.20-m)-linker-nCas9(D10A, C80A)-bipartite NLS protein complexed with sgRNA (enzyme)” was tested. Which stoichiometry N did it give?
**A.** The stoichiometry N was 2.
